Measured values taken from patent US20140199315A1 (Biogen, published 2014).

T1: full-length murine Sp35 with HA tag, from lysate of transfected cells (mouse, UniProt Q9D1T0 34-614, limits assumed)
T1 construct: also called mSp35 (immunoprecipitation); not shown: HA tag
T1 sequence (looked up): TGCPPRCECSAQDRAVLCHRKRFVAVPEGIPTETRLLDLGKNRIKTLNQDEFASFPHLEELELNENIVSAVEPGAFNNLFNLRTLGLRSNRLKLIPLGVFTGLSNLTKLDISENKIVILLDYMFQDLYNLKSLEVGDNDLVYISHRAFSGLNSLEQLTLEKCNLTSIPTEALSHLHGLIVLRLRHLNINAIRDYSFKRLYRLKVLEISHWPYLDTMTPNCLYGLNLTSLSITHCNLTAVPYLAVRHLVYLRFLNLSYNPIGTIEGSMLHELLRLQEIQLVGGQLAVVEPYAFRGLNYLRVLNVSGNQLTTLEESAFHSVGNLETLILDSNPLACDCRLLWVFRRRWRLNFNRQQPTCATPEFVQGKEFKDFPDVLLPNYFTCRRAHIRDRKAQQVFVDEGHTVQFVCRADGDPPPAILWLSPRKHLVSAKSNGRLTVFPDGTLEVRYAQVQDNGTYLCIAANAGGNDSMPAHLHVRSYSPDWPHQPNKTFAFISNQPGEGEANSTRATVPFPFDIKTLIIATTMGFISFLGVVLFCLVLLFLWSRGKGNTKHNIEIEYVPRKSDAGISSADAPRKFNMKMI

T2: mouse Sp35 protein expressed on transfected cells (mouse, UniProt Q9D1T0 36-614)
T2 construct: whole, on cells; also called mSp35
T2 sequence (looked up): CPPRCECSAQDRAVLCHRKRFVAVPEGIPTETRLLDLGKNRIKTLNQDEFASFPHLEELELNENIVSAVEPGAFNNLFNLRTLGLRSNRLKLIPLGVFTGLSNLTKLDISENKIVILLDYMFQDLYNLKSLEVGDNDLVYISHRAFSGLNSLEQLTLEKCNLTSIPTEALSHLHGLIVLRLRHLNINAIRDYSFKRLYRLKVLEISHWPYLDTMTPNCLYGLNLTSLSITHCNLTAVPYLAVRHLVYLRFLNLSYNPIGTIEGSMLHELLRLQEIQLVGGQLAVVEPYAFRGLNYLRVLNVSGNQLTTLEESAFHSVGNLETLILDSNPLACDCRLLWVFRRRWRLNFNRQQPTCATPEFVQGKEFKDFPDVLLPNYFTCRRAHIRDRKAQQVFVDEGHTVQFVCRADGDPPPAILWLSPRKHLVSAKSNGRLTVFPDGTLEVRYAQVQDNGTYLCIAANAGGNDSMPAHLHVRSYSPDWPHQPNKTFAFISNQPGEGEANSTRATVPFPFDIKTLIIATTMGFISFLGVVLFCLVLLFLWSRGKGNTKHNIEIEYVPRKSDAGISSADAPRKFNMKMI

T3: full-length human Sp35 with N-terminal hemagglutinin (HA) tag, from lysate of transfected COS-1 cells (human, UniProt Q96FE5 40-620)
T3 construct: also called huSp35 (immunoprecipitation); not shown: HA tag at the N-terminus
T3 sequence: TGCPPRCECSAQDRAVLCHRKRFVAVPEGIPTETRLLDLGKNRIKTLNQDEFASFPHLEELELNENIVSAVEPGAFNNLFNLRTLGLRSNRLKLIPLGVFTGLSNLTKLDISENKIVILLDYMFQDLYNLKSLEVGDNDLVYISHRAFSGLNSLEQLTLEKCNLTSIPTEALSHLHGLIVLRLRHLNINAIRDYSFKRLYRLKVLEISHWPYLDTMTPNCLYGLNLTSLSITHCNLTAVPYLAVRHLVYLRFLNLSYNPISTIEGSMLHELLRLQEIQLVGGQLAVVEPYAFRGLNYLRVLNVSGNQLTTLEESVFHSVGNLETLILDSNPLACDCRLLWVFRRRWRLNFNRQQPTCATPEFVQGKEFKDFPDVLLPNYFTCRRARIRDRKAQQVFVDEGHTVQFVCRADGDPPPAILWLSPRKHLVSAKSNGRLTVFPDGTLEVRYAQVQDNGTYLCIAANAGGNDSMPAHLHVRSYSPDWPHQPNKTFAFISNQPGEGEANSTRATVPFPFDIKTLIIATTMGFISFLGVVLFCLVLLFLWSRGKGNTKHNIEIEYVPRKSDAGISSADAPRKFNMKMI

T4: Sp35 polypeptide consisting of amino acids 34-534 of human Sp35 (human, UniProt Q96FE5 40-540)
T4 construct: No fusion partner stated
T4 sequence: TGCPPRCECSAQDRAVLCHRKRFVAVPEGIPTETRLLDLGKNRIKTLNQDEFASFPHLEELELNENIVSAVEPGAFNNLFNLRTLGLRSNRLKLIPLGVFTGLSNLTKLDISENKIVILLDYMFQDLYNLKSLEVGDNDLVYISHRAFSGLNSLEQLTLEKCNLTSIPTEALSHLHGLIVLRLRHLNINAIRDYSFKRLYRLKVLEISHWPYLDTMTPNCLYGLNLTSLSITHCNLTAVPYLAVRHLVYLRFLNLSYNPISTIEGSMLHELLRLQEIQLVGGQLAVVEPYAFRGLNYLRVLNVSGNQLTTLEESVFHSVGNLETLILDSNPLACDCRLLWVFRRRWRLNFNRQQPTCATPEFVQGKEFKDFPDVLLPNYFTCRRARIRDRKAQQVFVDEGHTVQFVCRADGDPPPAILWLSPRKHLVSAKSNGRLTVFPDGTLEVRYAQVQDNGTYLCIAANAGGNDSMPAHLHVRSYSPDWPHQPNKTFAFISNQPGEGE

T5: Sp35 fragment amino acids 34-532 of SEQ ID NO:2 fused to hinge and Fc of IgG1 (human, UniProt Q96FE5 40-538)
T5 construct: the mature proteins should be the same; not shown: hinge and Fc regions of IgG1
T5 sequence: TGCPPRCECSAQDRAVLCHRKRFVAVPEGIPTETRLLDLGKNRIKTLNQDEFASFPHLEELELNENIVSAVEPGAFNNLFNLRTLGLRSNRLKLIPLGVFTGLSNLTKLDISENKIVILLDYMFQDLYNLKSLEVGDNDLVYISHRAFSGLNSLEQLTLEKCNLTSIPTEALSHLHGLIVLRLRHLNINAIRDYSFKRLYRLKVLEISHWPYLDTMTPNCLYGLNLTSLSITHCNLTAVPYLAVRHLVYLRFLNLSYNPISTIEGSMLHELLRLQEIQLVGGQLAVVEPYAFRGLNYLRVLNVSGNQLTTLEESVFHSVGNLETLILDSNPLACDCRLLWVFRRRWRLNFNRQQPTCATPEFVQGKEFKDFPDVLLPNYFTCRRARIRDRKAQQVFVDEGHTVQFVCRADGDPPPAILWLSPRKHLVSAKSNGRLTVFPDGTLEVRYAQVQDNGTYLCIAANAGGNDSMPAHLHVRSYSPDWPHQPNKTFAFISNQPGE

T6: Sp35-Fc fusion protein (human Sp35 residues 1-532 fused to hinge and Fc of human IgG1) (human, UniProt Q96FE5 40-538)
T6 construct: also called LINGO-1-Fc; not shown: hinge and Fc region of human IgG1
T6 sequence: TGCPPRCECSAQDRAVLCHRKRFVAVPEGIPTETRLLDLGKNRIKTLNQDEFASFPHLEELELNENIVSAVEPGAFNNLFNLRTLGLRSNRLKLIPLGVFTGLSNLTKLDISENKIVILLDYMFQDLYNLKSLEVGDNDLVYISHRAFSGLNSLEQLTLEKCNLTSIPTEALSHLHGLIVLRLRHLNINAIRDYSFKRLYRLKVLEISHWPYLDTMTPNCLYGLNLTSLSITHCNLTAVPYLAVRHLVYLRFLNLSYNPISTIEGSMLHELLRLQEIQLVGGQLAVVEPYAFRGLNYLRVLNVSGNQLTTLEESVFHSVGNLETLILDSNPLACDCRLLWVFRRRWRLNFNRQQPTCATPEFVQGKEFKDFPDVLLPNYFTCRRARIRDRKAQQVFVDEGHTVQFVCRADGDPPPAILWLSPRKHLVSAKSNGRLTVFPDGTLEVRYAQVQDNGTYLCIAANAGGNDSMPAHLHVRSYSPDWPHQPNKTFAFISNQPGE

T7: mouse Sp35 protein (form in the assay not stated) (mouse, UniProt Q9D1T0 36-532, limits assumed)
T7 construct: also called mSp35; murine Sp35
T7 sequence (looked up): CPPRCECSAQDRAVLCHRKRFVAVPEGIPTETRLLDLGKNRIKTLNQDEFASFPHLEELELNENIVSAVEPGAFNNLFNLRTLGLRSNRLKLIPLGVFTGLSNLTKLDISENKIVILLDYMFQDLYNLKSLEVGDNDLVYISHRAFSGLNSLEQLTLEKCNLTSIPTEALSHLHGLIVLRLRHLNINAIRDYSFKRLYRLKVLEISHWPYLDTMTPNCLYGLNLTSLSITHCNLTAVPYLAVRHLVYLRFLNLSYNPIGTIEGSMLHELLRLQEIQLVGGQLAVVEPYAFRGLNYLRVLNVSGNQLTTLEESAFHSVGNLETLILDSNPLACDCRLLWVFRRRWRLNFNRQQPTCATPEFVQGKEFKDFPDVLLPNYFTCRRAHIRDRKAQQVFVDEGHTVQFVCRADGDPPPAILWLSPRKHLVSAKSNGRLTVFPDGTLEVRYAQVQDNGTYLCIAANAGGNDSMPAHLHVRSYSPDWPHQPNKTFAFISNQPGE


Tests used:
[1] = target: human Sp35 protein expressed on transfected cells (human) (UniProt Q96FE5); assay: FACS on live human LINGO-1 (Sp35) transfected 293 cells, PE-labelled secondary antibody alone (no primary antibody), FL2-H
[2] = target: T1, full-length murine Sp35 with HA tag, …; assay: immunoprecipitation
Experimental: (§1) To perform the immunoprecipitation, COS-1 cells expressing Sp35, fused to a hemaglutinin (HA) tag on the N-terminus, were produced by transiently transfecting COS-1 cells with a DNA construct which expresses the full-length Sp35 protein with an HA tag. Cells were harvested 48 hr after transfection and were lysed in 1 ml lysis buffer (50 mM HEPES, pH 7.5, 150 mM NaCl, 1.5 mM MgCl₂, 1 mM EGTA, 1% Triton X-100 and 10% glycerol) for 30 min at 4° C. After centrifugation at 14,000×g for 15 min, the supernatants were incubated with ProteinA/G-Sepharose beads (Santa Cruz) at 4° C. for 1 hr, and then incubated at 4° C. for 1 hr with either the 1A7 or the 2F3 anti-Sp35 murine monoclonal antibodies. The beads were washed 3 times with lysis buffer, boiled in Laemmli sample buffer, subjected to 4-20% SDS-PAGE, and analyzed by Western blotting using an antibody which recognizes the HA tag. As shown on the SDS-PAGE gel, monoclonal antibodies 1A7 and 2F3, immunoprecipitated human and murine Sp35 (FIG. 1). […] Similarly, monoclonal antibodies 1G7, 2B10, 2F3, 3P4C2.2D2, 3P4C8.2G9, Li01, Li03, Li05, Li06, Li07, Li08, Li11 and Li12 immunoprecipitate human or mouse or human and mouse Sp35 (See Table 3B). Additionally, Li08 immunoprecipitates AP-Sp35 and monoclonal antibodies 1B6.4 and 3E3.1 immunoprecipitate endogenous Sp35 (See Table 3B).

[3] = target: T2, mouse Sp35 protein expressed on …; assay: FACS
Text: To further characterize the binding properties of hybridoma-derived anti-Sp35 mAbs 1A7 and 2F3 produced as described in Example 3, binding to both fixed and live COS-7 or 293 cells expressing mouse or human Sp35 was compared.

[4] = target: T3, full-length human Sp35 with N-terminal …; assay: immunoprecipitation
Experimental: as §1

[5] = target: T4, Sp35 polypeptide consisting of amino …; assay: similar experiments (ELISA)
[6] = target: T5, Sp35 fragment amino acids 34-532 of SEQ …; assay: ELISA
[7] = target: T6, Sp35-Fc fusion protein (human Sp35 …); assay: ELISA
[8] = target: T7, mouse Sp35 protein (form in the assay …); assay: method not stated (Example 5); KD determination (Example 5, method not stated), murine Sp35

| binding result [4] | binding result [5] | binding result [6] | binding result [7] | Molecule | further results |
| --- | --- | --- | --- | --- | --- |
|  |  |  |  | 2nd Ab only (antibody) | (FL2-H) Geom. Mean [1]: 6.6; (FL2-H) Mean [1]: 8.78; (FL2-H) Median [1]: 6.76; fraction of cells in the marker gate (FL2-H histogram) [1]: 5.52 |
|  |  |  |  | 2F3 (antibody, V domains shown, murine hybridoma monoclonal antibody; also called monoclonal antibody 2F3; MAb 2F3) VH: EVKLEESGGGLVQPGGSMKLSCAASGFTFSDAWLDWVRQSPEKGLEWVAEIRSKANNHATNYAESVKGRFTISRDDSKSSVYLQMNSLRAEDTGIYFCTPSFAYWGQGTTVTVSS VL: DIQMTQSPASLSASVGETVTITCRASGNIYNYLAWFQQKQGKSPQLLVYNAKTLPDGVPSRFSGSGSGTQYFLKINSLQPEDFGSYYCQHFWAIPYTFGGGTKLEIKR | binding result [2]: binds; binding result [3]: binds |
| binds | binds | binds | binds | 3P1D10.2C3 (antibody, V domains shown, murine hybridoma monoclonal antibody) VH: QVQLQQSGAELARPGASVKLSCRASGYTFTSSWTQWVKQRPGQGLEWIGAIYPGDGDTRYTQKFKGKATLTADKSSSTAYMQLSSLASEDSAVYYCARHNSYGMDYWGQGTSVTVSS VL: DIVMTQSPSSLTVTAGEKVTMSCKSSQSLLNSGNQKNYLTWYQQKPGQPPKLLIYWASTRESGVPDRFTGSGSGTDFTLTINSVQAEDLAVYYCQNDYSYPLFTFGSGTKLEIR |  |
| binds | binds | binds | binds | 3P1E11.3B7 (antibody, V domains shown) VH: QVQLQQSGAELARPGASVKLSCRASGYTFTSSWTQWVKQRPGQGLEWIGAIYPGDGDTRYTQKFKGKATLTADKSSSTAYMQLSSLASEDSAVYYCARHNSYGMDYWGQGTSVTVSS VL: DIVMTQSPSSLTVTAGEKVTMSCKSSQSLLNSGNQKSYLTWYQQKPGQPPKLLIYWASTRESGVPDRFTGSGSGTDFTLTINSVQAEDLAVYYCQNDYSYPLFTFGSGTKLEIR |  |
|  |  |  |  | 1A7 (antibody, V domains shown, murine hybridoma monoclonal antibody; also called monoclonal antibody 1A7; MAb 1A7) VH: QVQLVQSGPELKKPGETVKISCKASGYTFTNYGMNWVKQAPGKGLKWMGWINTDTGEPTYTEDFQGRFAFSLETSASTVYLQFNNLKNEDTATYFCAREGVHFDYWGQGTTVTVSS VL: QIVLTQSPAIMSASPGEKVTMTCSASSSVSYMHWYQQKSGTSPKRWIYDTSKLASGVPARFSGSGSGTSYSLTISSMEAEDAATYYCQQWSSNPFTFGSGTKLEIK | Kd [8]: 20 µM |
